{
  "source": "FireProtDB (doi:10.1093/oxfordjournals.jbchem.a021544)",
  "proteins": {"B1": {"name": "Lysozyme C wild type, P61626 (protein)", "chain": "MKALIVLGLVLLSVTVQGKVFERCELARTLKRLGMDGYRGISLANWMCLAKWESGYNTRATNYNAGDRSTDYGIFQINSRYWCNDGKTPGAVNACHLSCSALLQDNIADAVACAKRVVRDPQGIRAWVAWRNRCQNRDVRQYVQGCGV"}},
  "conditions": "Homo sapiens; pH 2.7; Thermal; DSC; glycine 0.05 M; reversible: yes; whole UniProt chain shown",
  "data": [
    {"protein": "B1", "values": [
      {"measurement": "Tm", "result": 64.9, "unit": "°C"},
      {"measurement": "heat capacity change of unfolding", "result": 1.58, "unit": "kcal/mol/K"},
      {"measurement": "unfolding enthalpy (calorimetric)", "result": 114, "unit": "kcal/mol"},
      {"measurement": "unfolding enthalpy (van 't Hoff)", "result": 120, "unit": "kcal/mol"}
    ]}
  ]
}
